Legend:
[1] = target: PniDAH7PS, the C-terminal CM-linked 3-deoxy-D-arabino-heptulosonate 7-phosphate synthase (DAH7PS) from Prevotella nigrescens, wild type (Prevotella nigrescens); test: SEC-SAXS
[2] = target: PniDAH7PS^Δ5AA, a truncated PniDAH7PS variant with removal of C327-T331 residues (Prevotella nigrescens); test: SEC-SAXS

Substance	stoichiometry N [1]	stoichiometry N [2]
PniDAH7PS, the C-terminal CM-linked 3-deoxy-D-arabino-heptulosonate 7-phosphate synthase (DAH7PS) from Prevotella nigrescens, wild type (enzyme)	2	–
PniDAH7PS^Δ5AA, a truncated PniDAH7PS variant with removal of C327-T331 residues (enzyme)	–	2

Reference: paper doi:10.1101/2021.03.29.437529
